The values below come from publication PMC7619462.

In assay [1] the target is NPR-44 (C. elegans) (UniProt Q9N5L5).
In assay [2] the target is T1, NPR-33 (C. elegans) (UniProt O62189).
T1 sequence: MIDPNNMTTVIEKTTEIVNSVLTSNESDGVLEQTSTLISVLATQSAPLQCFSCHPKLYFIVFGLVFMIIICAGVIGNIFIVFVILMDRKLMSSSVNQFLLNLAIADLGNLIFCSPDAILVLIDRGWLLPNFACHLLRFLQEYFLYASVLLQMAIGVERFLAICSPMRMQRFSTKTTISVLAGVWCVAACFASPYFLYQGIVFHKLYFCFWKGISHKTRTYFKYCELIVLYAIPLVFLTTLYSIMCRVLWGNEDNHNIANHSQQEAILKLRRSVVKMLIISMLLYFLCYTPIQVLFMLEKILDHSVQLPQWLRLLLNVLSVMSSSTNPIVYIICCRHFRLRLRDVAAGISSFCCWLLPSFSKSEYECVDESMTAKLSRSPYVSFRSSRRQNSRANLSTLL

Chain of UniProt Q9N5L5 (Q9N5L5 entry or part of it): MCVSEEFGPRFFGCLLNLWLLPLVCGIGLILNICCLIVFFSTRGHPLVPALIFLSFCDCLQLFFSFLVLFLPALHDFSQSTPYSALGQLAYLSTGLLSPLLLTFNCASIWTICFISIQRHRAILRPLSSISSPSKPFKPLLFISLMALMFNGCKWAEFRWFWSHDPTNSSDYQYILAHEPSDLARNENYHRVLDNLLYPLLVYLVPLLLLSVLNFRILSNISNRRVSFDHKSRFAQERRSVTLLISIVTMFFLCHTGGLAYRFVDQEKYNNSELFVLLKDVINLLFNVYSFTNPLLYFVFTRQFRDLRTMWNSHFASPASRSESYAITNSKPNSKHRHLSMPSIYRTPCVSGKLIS

B1: NLP-69-1 (peptide)
peptide: LHRIGGNIVM
With B1, the EC50 of receptor activation: calcium mobilization (aequorin) in CHO cells co-expressing the GPCR and Gα16, concentration-response curve, n = 6; also significant calcium response at 10 μM in assay [1] is 232 nM.

B2: NLP-70-2 (peptide)
peptide: WYDWQNVPHALQQ
With B2, the EC50 of receptor activation: calcium mobilization (aequorin) in CHO cells co-expressing the GPCR and Gα16, concentration-response curve, n = 6; also significant calcium response at 10 μM in assay [2] came to 76.3 nM.

B3: NLP-70-1 (peptide)
peptide: WYEWNNDMEIT
Consider B3, for which the EC50 of receptor activation: calcium mobilization (aequorin) in CHO cells co-expressing the GPCR and Gα16, concentration-response curve, n = 6 in assay [2] came out at 1.16 µM.
